Laboratory results from the supplement of paper PMC9732359.
± gives the uncertainty stated by the source.

Assay: protein stability index of a GFP-peptide fusion (yeast GPS) (PSI 1-4); higher = more stable; sorted into four equal gates, so the index is relative within each strain
Method in brief: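 Peptides tiling yeast proteins in 17-residue segments were fused downstream of GFP, with Cherry expressed from the same plasmid. As a pooled library in yeast, mid-log cultures grown in leucine-free medium were sorted into four equal gates by GFP/Cherry fluorescence ratio. Gate plasmids were PCR-amplified and Illumina-sequenced, and barcodes linked reads to strains. Each peptide received a protein stability index equal to the sum of each gate's read frequency times its gate number.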

| Sequence | protein stability index (doa10∆) | protein stability index (pdr5∆) | protein stability index (san1∆) | protein stability index (ubr1∆) |
| --- | --- | --- | --- | --- |
| YLGTKVELPYGAHGYSG [PRE1] | 2.77 ± 0.18 | 2.38 ± 0.11 | 2.5 ± 0.1 | 2.96 ± 0.086 |
| TMADAVRELGILCIFEG [SEC65] | 2.52 ± 0.06 | 2.05 ± 0.071 | 2.62 ± 0.063 | 1.45 ± 0.062 |
| LTNGVTEHVRQNAKLLA [RRP6] | 1.6 ± 0.041 | 1.88 ± 0.073 | 1.99 ± 0.23 | 1.59 ± 0.069 |
| DTYPYLTGEWSTKFDYP [FAS1] | 3.19 ± 0.073 | 2.96 ± 0.079 | 2.85 ± 0.063 | 2.94 ± 0.057 |
| PLKYAPHLPFSKSENPV [SWI3] | 2.81 ± 0.076 | 2.95 ± 0.078 | 2.66 ± 0.091 | 2.93 ± 0.074 |
| RLPHQFRPIEIFTDFLP [RRP42] | 1.86 ± 0.068 | 1.96 ± 0.07 | 2.03 ± 0.078 | 2.21 ± 0.066 |
| WAVTLDTSRPDLEWQEL [DSN1] | 3.35 ± 0.072 | 3.18 ± 0.065 | 3.13 ± 0.047 | 3.14 ± 0.033 |
| NSEYLKRRVTNLEFNYT [SMC2] | 2.38 ± 0.066 | 2.27 ± 0.1 | 2.5 ± 0.091 | 2.49 ± 0.084 |
| AKEVKVLYHTSGAITFV [PRP8] | 2.12 ± 0.055 | 2.5 ± 0.064 | 2.58 ± 0.055 | 2.72 ± 0.068 |
| AFSSVEHIIRDVHNGYI [COB] | 3.16 ± 0.23 | 3 ± 0.26 | 3.37 ± 0.24 | 2.99 ± 0.16 |
| DYKGAKLNVVGWFHSHP [RRI1] | 2.81 ± 0.097 | 2.49 ± 0.1 | 2.38 ± 0.18 | 2.59 ± 0.061 |
| VFENYVKKTGENEISSL [CDC53] | 3.14 ± 0.069 | 2.74 ± 0.072 | 2.9 ± 0.07 | 3.15 ± 0.042 |
| VFKATSSTDEESWFKAL [FAS1] | 2.92 ± 0.13 | 3 ± 0.15 | 2.75 ± 0.082 | 2.88 ± 0.084 |
| DVDQHGNDNNSDSNANA [SWI3] | 3.01 ± 0.045 | 3.25 ± 0.046 | 3.245 ± 0.028 | 3.249 ± 0.028 |
| DVYSPEKGSWEQLSPQD [BRR2] | 3.15 ± 0.15 |  | 2.47 ± 0.24 | 3.34 ± 0.25 |
| EINETEFIRCGCLIKNL [RMP1] | 2.48 ± 0.11 | 2.98 ± 0.096 | 2.82 ± 0.099 | 2.91 ± 0.055 |
| DSSYQDIFAVNLEESSK [RET1] |  | 2.09 ± 0.25 | 2.29 ± 0.26 |  |
| LQRDLFIRLPHWPLNWY [RGR1] | 2.05 ± 0.095 | 2.15 ± 0.061 | 2.11 ± 0.082 | 2.11 ± 0.076 |
| ISPDPNLSIDEVAVPDR [RPO31] | 2.87 ± 0.089 | 2.76 ± 0.084 | 3.23 ± 0.069 | 2.95 ± 0.049 |
| LDTYRERSKQLNEKFQE [SMC2] |  |  | 3.37 ± 0.12 |  |
| VIFVERATPATLTELKD [SRB2] | 2.84 ± 0.091 | 2.02 ± 0.063 | 2.4 ± 0.12 | 3.23 ± 0.098 |
| VIMALMLMSKIGDVDGL [POP5] | 1.49 ± 0.044 | 2 ± 0.053 | 1.84 ± 0.1 | 1.97 ± 0.047 |
| IGEGAKLVRDAFALAKE [RPT5] | 3.51 ± 0.12 | 3.38 ± 0.14 | 3.3 ± 0.093 | 3.5 ± 0.11 |
| PSQGVHYKVPTDTSTTA [MED6] | 2.34 ± 0.043 | 2.84 ± 0.046 | 2.37 ± 0.06 | 2.76 ± 0.037 |
| NDPAREKFSSFIESIVV [SNF12] | 2.78 ± 0.056 | 2.8 ± 0.058 | 2.27 ± 0.071 | 2.77 ± 0.04 |
| QAYQFLNTFGSKICLSH [ITC1] | 2.06 ± 0.076 | 1.33 ± 0.049 | 1.63 ± 0.082 | 1.42 ± 0.054 |
| KVGIWPYFDYIFNDILA [YJL039C/NUP192] | 1.67 ± 0.11 | 1.96 ± 0.071 | 1.75 ± 0.17 | 1.43 ± 0.061 |
